This assay addresses H-2D^b on RMA-S cells (mouse (endogenous in RMA-S)). The assay can be described thus: flow cytometry on cells. A general note: A flow cytometer gives signals particle by particle.

As to “gp33-wt, LCMV wild-type peptide antigen (gp33 residues 33-41)”, the half-life of the peptide-MHC complex (Peptide stability) was > 1 h.

For the origin of these results see publication PMC2435421.
